In US11504441B2, “Radiolabeled compounds targeting the prostate-specific membrane antigen” (PROVINCIAL HEALTH SERVICES AUTHORITY, priority 2019, dated 2022):

Key:
[1] = system: PSMA-expressing LNCaP cancer xenografts; design: species or system mice; conditions: mouse, in vivo, iv
Method: (§1) Imaging and biodistribution experiments were performed using NODSCID 1 L2RγKO male mice. Mice were anesthetized by inhalation with 2% isoflurane in oxygen, and implanted subcutaneously with 1×10^7 LNCaP cells behind left shoulder. Mice were imaged or used in biodistribution studies when the tumor grew up to reach 5-8 mm in diameter during 5-6 weeks.
PET imaging experiments were conducted using Siemens Inveon micro PET/CT scanner. Each tumor bearing mouse was injected 6-8 MBq of Ga-68 labeled tracer through the tail vein under anesthesia (2% isoflurane in oxygen). The mice were allowed to recover and roam freely in their cage. After 50 min, the mice were sedated again with 2% isoflurane in oxygen inhalation and positioned in the scanner. […] Then, a 10-min static PET imaging was performed to determined uptake in tumor and other organs. […] The collected organs/tissues were weighed and counted using a Perkin Elmer (Waltham, Mass.) Wizard2 2480 gamma counter. The uptake in each organ/tissue was normalized to the injected dose using a standard curve, and expressed as the percentage of the injected dose per gram of tissue (% ID/g). […]
PET imaging experiments were conducted using Siemens Inveon micro PET/CT scanner. […] Then, a 10-min static PET imaging was performed to determined uptake in tumor and other organs.

[2] = system: PSMA-expressing LNCaP cancer xenografts; conditions: mouse, in vivo
Method: (§2) LNCaP cell line was obtained from ATCC (LNCaP clone FGC, CRL-1740). […] Cells were cultured in PRM I 1640 medium supplemented with 10% FBS, penicillin (100 U/mL) and streptomycin (100 μg/mL) at 37° C. in a humidified incubator containing 5% CO2. Cells grown to 80-90% confluence were then washed with sterile phosphate-buffered saline (1× PBS pH 7.4) and collected by trypsinization. The collected cells concentration was counted with a Hausser Scientific (Horsham, Pa.) Hemacytometer.
as §1
(§3) PET imaging experiments were conducted using Siemens Inveon micro PET/CT scanner. Each tumor bearing mouse was injected 6-8 MBq of Ga-68 labeled tracer through the tail vein under anesthesia (2% isoflurane in oxygen). The mice were allowed to recover and roam freely in their cage. After 50 min, the mice were sedated again with 2% isoflurane in oxygen inhalation and positioned in the scanner. A 10-min CT scan was conducted first for localization and attenuation correction after segmentation for reconstructing the PET images. Then, a 10-min static PET imaging was performed to determined uptake in tumor and other organs. The mice were kept warm by a heating pad during acquisition. For biodistribution studies, the mice were injected with the radiotracer as described above. The mice was anesthetized with 2% isoflurane inhalation, and euthanized by CO2 inhalation. Blood was withdrawn immediately from the heart, and the organs/tissues of interest were collected. The collected organs/tissues were weighed and counted using a Perkin Elmer (Waltham, Mass.) Wizard2 2480 gamma counter. The uptake in each organ/tissue was normalized to the injected dose using a standard curve, and expressed as the percentage of the injected dose per gram of tissue (% ID/g).
(§4) LNCaP cell line was obtained from ATCC (LNCaP clone FGC, CRL-1740). […] Cells were cultured in PRM I 1640 medium supplemented with 10% FBS, penicillin (100 U/mL) and streptomycin (100 μg/mL) at 37° C. in a humidified incubator containing 5% CO2. Cells grown to 80-90% confluence were then washed with sterile phosphate-buffered saline (1× PBS pH 7.4), and collected by trypsinization. The collected cell concentration was counted with a Hausser Scientific (Horsham, Pa.) Hemacytometer.
(§5) Imaging and biodistribution experiments were performed using NODSCID 1L2RγKO male mice. Mice were anesthetized by inhalation with 2% isoflurane in oxygen, and implanted subcutaneously with 1×10^7 LNCaP cells behind left shoulder. Mice were imaged or used in biodistribution studies when the tumor grew up to reach 5-8 mm in diameter during 5-6 weeks.
(§6) PET imaging experiments were conducted using Siemens Inveon micro PET/CT scanner. Each tumor bearing mouse was injected 6-8 MBq of Ga-68 or F-18 labeled tracer through the tail vein under anesthesia (2% isoflurane in oxygen). The mice were allowed to recover and roam freely in their cage. After 50 min, the mice were sedated again with 2% isoflurane in oxygen inhalation and positioned in the scanner. A 10-min CT scan was conducted first for localization and attenuation correction after segmentation for reconstructing the PET images. Then, a 10-min static PET imaging was performed to determined uptake in tumor and other organs.
(§7) For biodistribution studies, the mice were injected with the radiotracer as described above.

in vivo = conditions: male, NODSCID 1L2RγKO, mouse, iv, total radioactivity
Method: as §2, §1, §3, §4, §5, §6, §7

In the case of O=C(O)CCC[C@H](NC(=O)N[C@@H](CCCCNC(=O)[C@H](Cc1c2ccccc2cc2ccccc12)NC(=O)[C@H]1CC[C@H](CNC(=O)CN2CCN(CC(=O)O)CCN(CC(=O)O)CCN(CC(=O)O)CC2)CC1)C(=O)O)C(=O)O [68Ga-HTK03149, metal not drawn], the “activity in other organs in PET images” value [1] is reported as “very low activity in other organs”, the Adrenal glands uptake ([2]; male, NODSCID 1L2RγKO, iv, 1 h) is reported as 0.33 ± 0.11 % ID/g and the Blood uptake ([2]; male, NODSCID 1L2RγKO, iv, 1 h) is reported as 0.70 ± 0.17 % ID/g. It also gave a Kidneys uptake ([2]; male, NODSCID 1L2RγKO, iv, 1 h) of 4.15 ± 1.46 % ID/g, a Liver uptake ([2]; male, NODSCID 1L2RγKO, iv, 1 h) of 0.25 ± 0.06 % ID/g and a Lungs uptake ([2]; male, NODSCID 1L2RγKO, iv, 1 h) of 0.53 ± 0.09 % ID/g. The Seminal uptake ([2]; male, NODSCID 1L2RγKO, iv, 1 h) was 3.66 ± 5.36 % ID/g, the Spleen uptake ([2]; male, NODSCID 1L2RγKO, iv, 1 h) was 0.27 ± 0.05 % ID/g and the Stomach uptake ([2]; male, NODSCID 1L2RγKO, iv, 1 h) was 0.07 ± 0.01 % ID/g. For the same molecule, the Tail uptake ([2]; male, NODSCID 1L2RγKO, iv, 1 h) was 0.58 ± 0.14 % ID/g, the Thyroid uptake ([2]; male, NODSCID 1L2RγKO, iv, 1 h) was 0.20 ± 0.05 % ID/g and the Tumor uptake ([2]; male, NODSCID 1L2RγKO, iv, 1 h) was 19.1 ± 6.37 % ID/g. For the same molecule, the Urine uptake ([2]; male, NODSCID 1L2RγKO, iv, 1 h) was 319 ± 183 % ID/g, the “Blood: Salivary ratio” value [2] was 3.21 ± 0.64 and the tissue uptake at 1 h (in vivo; Adrenal glands uptake) was 0.46 ± 0.26 %ID/g. It also gave a tissue uptake at 3 h (in vivo; Adrenal glands uptake) of 0.46 ± 0.16 %ID/g, a tissue uptake at 1 h (in vivo; Blood uptake) of 0.96 ± 0.17 %ID/g and a tissue uptake at 3 h (in vivo; Blood uptake) of 0.35 ± 0.14 %ID/g. The tissue uptake at 1 h (in vivo; Bone uptake) was 0.1 ± 0.03 %ID/g, the tissue uptake at 1 h (in vivo; Brain uptake) was 0.02 ± 0.01 %ID/g and the tissue uptake at 3 h (in vivo; Brain uptake) was 0.02 ± 0.01 %ID/g. For the same molecule, the tissue uptake at 1 h (in vivo; Fat uptake) was 0.22 ± 0.16 %ID/g, the tissue uptake at 3 h (in vivo; Fat uptake) was 0.16 ± 0.09 %ID/g and the tissue uptake at 1 h (in vivo; Heart uptake) was 0.29 ± 0.07 %ID/g. It also gave a tissue uptake at 3 h (in vivo; Heart uptake) of 0.09 ± 0.02 %ID/g, a tissue uptake at 1 h (in vivo; Intestine uptake) of 0.3 ± 0.07 %ID/g and a tissue uptake at 3 h (in vivo; Intestine uptake) of 0.18 ± 0.04 %ID/g. For the same molecule, the tissue uptake at 1 h (in vivo; Kidneys uptake) was 6.79 ± 4.91 %ID/g, the tissue uptake at 3 h (in vivo; Kidneys uptake) was 2.33 ± 1.02 %ID/g and the tissue uptake at 1 h (in vivo; Lacrimal uptake) was 0.1 ± 0.03 %ID/g. It also gave a tissue uptake at 3 h (in vivo; Lacrimal uptake) of 0.21 ± 0.2 %ID/g, a tissue uptake at 1 h (in vivo; Liver uptake) of 0.35 ± 0.17 %ID/g and a tissue uptake at 3 h (in vivo; Liver uptake) of 0.13 ± 0.02 %ID/g. The tissue uptake at 1 h (in vivo; Lungs uptake) was 0.82 ± 0.37 %ID/g, the tissue uptake at 3 h (in vivo; Lungs uptake) was 0.22 ± 0.05 %ID/g and the tissue uptake at 1 h (in vivo; Muscle uptake) was 0.14 ± 0.04 %ID/g. It also gave a tissue uptake at 3 h (in vivo; Muscle uptake) of 0.05 ± 0.02 %ID/g, a tissue uptake at 1 h (in vivo; Pancreas uptake) of 0.17 ± 0.03 %ID/g and a tissue uptake at 3 h (in vivo; Pancreas uptake) of 0.06 ± 0.02 %ID/g. The tissue uptake at 1 h (in vivo; Salivary uptake) was 0.23 ± 0.05 %ID/g, the tissue uptake at 3 h (in vivo; Salivary uptake) was 0.15 ± 0.13 %ID/g and the tissue uptake at 1 h (in vivo; Seminal uptake) was 6.46 ± 7.52 %ID/g. It also gave a tissue uptake at 3 h (in vivo; Seminal uptake) of 1.19 ± 1.04 %ID/g, a tissue uptake at 1 h (in vivo; Spleen uptake) of 0.37 ± 0.12 %ID/g and a tissue uptake at 3 h (in vivo; Spleen uptake) of 0.24 ± 0.07 %ID/g. For the same molecule, the tissue uptake at 1 h (in vivo; Stomach uptake) was 0.09 ± 0.04 %ID/g, the tissue uptake at 3 h (in vivo; Stomach uptake) was 0.03 ± 0.01 %ID/g and the tissue uptake at 1 h (in vivo; Tail uptake) was 0.86 ± 0.47 %ID/g. For the same molecule, the tissue uptake at 3 h (in vivo; Tail uptake) was 0.13 ± 0.06 %ID/g, the tissue uptake at 1 h (in vivo; Testes uptake) was 0.38 ± 0.16 %ID/g and the tissue uptake at 3 h (in vivo; Testes uptake) was 0.11 ± 0.03 %ID/g. It also gave a tissue uptake at 1 h (in vivo; Thyroid uptake) of 0.29 ± 0.08 %ID/g, a tissue uptake at 3 h (in vivo; Thyroid uptake) of 0.1 ± 0.04 %ID/g and a tissue uptake at 1 h (in vivo; Tumor uptake) of 22.1 ± 13.9 %ID/g. It also gave a tissue uptake at 3 h (in vivo; Tumor uptake) of 33.5 ± 10.7 %ID/g, an excreta dose per gram or mL at 1 h (in vivo; Urine uptake) of 336 ± 127 %ID/g and an excreta dose per gram or mL at 3 h (in vivo; Urine uptake) of 148 ± 102 %ID/g.
